This data set addresses T1, PPR10 (Zea mays, UniProt B8Y6I0 96-786).
T1 sequence: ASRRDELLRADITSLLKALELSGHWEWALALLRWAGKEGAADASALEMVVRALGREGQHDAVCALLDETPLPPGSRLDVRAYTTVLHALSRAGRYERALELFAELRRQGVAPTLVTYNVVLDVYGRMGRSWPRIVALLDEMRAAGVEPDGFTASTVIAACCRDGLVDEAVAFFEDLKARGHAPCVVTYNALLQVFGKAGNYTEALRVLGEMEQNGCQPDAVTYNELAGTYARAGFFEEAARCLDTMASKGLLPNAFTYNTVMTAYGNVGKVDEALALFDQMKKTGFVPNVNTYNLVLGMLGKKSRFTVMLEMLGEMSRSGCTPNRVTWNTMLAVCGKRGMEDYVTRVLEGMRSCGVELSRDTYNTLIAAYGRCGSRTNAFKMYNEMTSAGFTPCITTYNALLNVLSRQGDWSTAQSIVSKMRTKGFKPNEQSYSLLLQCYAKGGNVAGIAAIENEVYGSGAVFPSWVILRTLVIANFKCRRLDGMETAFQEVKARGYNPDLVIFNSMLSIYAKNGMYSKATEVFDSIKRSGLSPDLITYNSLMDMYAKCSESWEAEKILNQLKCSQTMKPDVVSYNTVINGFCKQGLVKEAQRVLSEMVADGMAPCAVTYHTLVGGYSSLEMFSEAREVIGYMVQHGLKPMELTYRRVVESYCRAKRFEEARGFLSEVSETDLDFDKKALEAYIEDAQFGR
The experiment in a line: SEC-SAXS. Background: SEC sorts molecules by how far they enter the pores of the column.

Take GUAUCCUUAACCAUUUC (ssRNA) [atpH RNA 17-mer]: the binding result was “binds”.

The values are drawn from article PMC4330388.
